Measured values from the NTF2 design screens of Basanta et al. (2020).

experiment: protease stability score; higher = more stable; yeast display proteolysis, trypsin and chymotrypsin;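 note: log10 excess protease needed over predicted unfolded state with 0 meaning unfolded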

First: DERDLEEVNRLVKHGNWHEFVKNADKNVRARVGDKRVHGREHFKSLAENWRRRIDHQSIKFVDVQGERAVVTMKMNVNGKTVEVMFSFVVSNGHIKEYEMRARNDDDETRLQEVRS
Second: DERDLHRQAEDVATAWQTGDSHQFEKLASENVRYVIGDKSYKGKEQVKDMLTEIDKQADHRRVSSMTVHGNKIVVVITVHYNGRTRRLNVVFDVHNGRVRQVDLSIG
The protease stability score of the first is lower: 0.478 for the first, 0.701 for the second.

Compared with “DERDLKEAIDNIRTNNFDELNKMADPNVKAVIGNKTIHGRETINKFLHRLSQQVDHVRIRHYHTRGDHLHVDFKVHFDGKDVKLRIVIRVNNGKITYIQIDVTSEEQLEELDEIVD”, “DERDLKEALDLVKTGDFTRIARMADENVKLKVGDKDVHGREDAKRLMSQLEKQVDHYEIDDVTLEGNSASIDAHFNVNGNRIRFVVVIHVHNGKIKHFTIHVRDEEDKDKLRKDDG” is lower in protease stability score: 1.59 for the first, 0.799 for the second.

Compared with “DERDLKTFLDILERNDEDKLQTMADENVELQVGDKTFHGREEFQKYVQHVRDQVDRVDVRDYRIDNGRASVRVIFDFNGKNLDVVMVFSVRNGRVKYFSIQYRDEEVKKMLEEIEG”, “DERDMKAIVRAVKAFRRNNPEEVRENVDENVRIHVGDKEVHGRDQLKRDMEREVKTWRRSIRRISIDNQGDTVNVDIDQEKKHDGDPNREQNVVHFVAQNGKIKSVEQRHDG” is higher in protease stability score: -0.172 for the first, 0.748 for the second.

First: DERDMTKVFDALLKNDEDTVKDQLDEDVQVTVGDKKVHGREQAQETWERLLQRADHINMKSFTTRGDRAVAIVVARVNGHKLEWEYRFKASNGKVEHARIDFRDDDEERKFENALR
Second: DERDNKVVEEYIKALQRGDPKQARRQADPNARFQVGDTELHGMDDVARKIERETKQWRLEIHHVKVDVKGDKMTIRLDFVVEVNGHPKRMNLTVEAHAHNGKIKEMVMHVDPKQEEELKS
The protease stability score of the first is lower: 0.024 for the first, 0.188 for the second.

Going from “DERDQELFQNFIKALQTNNPDQVMEQVDPNAEIQYGDRVVRGRHQLRREVEQEHHEMRNDIKVRSIRANNGHVEATFDVVFEINGKPVENRVSVILEMRDGRAKHIEWRIPSEVKEQLKG” to “DERDQKHLAELIAKALETGDFKLAQKNVDENVRVKVGDETLHGKDNMQKWAEENHRRVDHLQLNDIKIHNGRVVINMRAVVNGKDFRLDIKIQFDNGKIHVVSIDPRVERHIKS”, the protease stability score rises from 0.059 to 0.733.

Going from “DERDQNRKAEEAAHALRDGDERRISEMFDKNAHATVGDQTYTGREEIMKWVHDIKKRYDHVTLHDVKVHNGRADLDMVFNHNGKEDRIRIDIQFQGDKIKHVSVRSK” to “DERDQRRRMDQARKILKNNDEEKFNRLLDENARMRVGEKVFHGRRQARTHLKRLHEHVDSIRVNHVSVHNGNVEVVVTMQHNGRYRQIRFDMQVHNGRAKEVKIDTS”, the protease stability score falls from 1.69 to 0.091.

Going from “DERDQVKRAKEYLHAFNQGDPDEADKNADPNAKVDVGDHRYHGREEFDKAVKTFKDQVDHIEVKDVKAQGNHASARVTADVNGHTLDMIITVELHNGKVKSYVVKKK” to “DERDRHKQVEEMINAFDDGDEETIKELMDEDVRAQIGNKRVHGQENVSRILKEFRDRADHIQVDTYHVEGDRAQIHAKVEVNGRRIKVSIHVQLENGRFKSFVIEYTDSDKLREMQS”, the protease stability score rises from -0.175 to 0.909.

Going from “DERDRRVMEDFFRALEEGDPDTLRQNMDKDAKLVIGDKTYHGREEIATRIVQHIEHAHVRMRVDSIRAHNGRVEVNVTFMVNHNGRPRSDRMNVEAVIRNGKIKELHLVTEK” to “DERDVHRIAEQLIKAMQTGDEKKLTDLADKDAEAQIGDKEIHGNHDFSRAMREFRERVDHIELKDIRVHNGHVSVDIVADINGVQLRFVITMEVKNGKVRQLSVEVRDPEQEKTALS”, the protease stability score rises from -0.131 to 0.9.

Compared with “DERDVKRVEEWVKAEHTGDKDKMKELLDENAEIQIGDRSITGRETRAEELRKRQEQMRVRFRKVDFQHRNGQARVDMDVQNDHNGKPHTHRVDANFQLHNGKVQRVKMTSHK”, “DERDVKSVIDLVKTGDFDQMVRNADKDVKIRIGDKHVHGREQASEAMKKFTDQIDHYEVKSVNVNNGRVIVEAVFVVNGEKITVTVIVEAQNGRITHVEWRYRDEHDKKLLRKILG” is higher in protease stability score: 0.099 for the first, 1.47 for the second.

Going from “DEREAASVAMRAAQAFVTGDEKTFVDNVDPNARVTVGDKHLHGREHIQDHIRKLKTRVDHHEIHDYKVHGNKATMDVRVVFDGRTRDKKIFAVAHNGRVQEMRVEDG” to “DEREAENARNYQENQKTNNPQKLQELVDPNVHWQVGDKSYKGRETQKKEMDNKRNHIREHIEHVEVRSHGDKVEAKYTAYADINGDPVRMRFDQVMVVHNGRLTEVNVDMSEDQKRKQES”, the protease stability score falls from -0.299 to -0.46.

Compared with “DEREAKKVVEDLKRGDWNKLMQLVDPNAKAVVGDKRVHGREQVQHMMQQFQDRIDHMEIRSVRVHNGRIEVDATFIFNGQSVRVIFHITVHNGRIQEIHVQATNEKVKHQLRKFLS”, “DEREARDVQHRINKNDPQSHEDQVDEDVKLQIGDTTWHGREELNDVIRRVRESADHIKYERVEVDGDTVVADVVYTINGKNIKLRLVVHVKNGRIKYMNMTATNPDDLRTLNEIIQ” is higher in protease stability score: 1.07 for the first, 1.25 for the second.

Going from “DEREEAKRLWERFVRAIQHGDERRLRELLPPDVRVTVGDKEYHGRDQAVTWLQELAERVDHVSFDVRHIEVENGRLDIDAKVQMENNGRQHSFTLRIIADDHNGKFVIRSITYQ” to “DEREEEKMAEDLLNAVERNNPDHAQKMVDENARVVIGDKDVHGRERMREAIKRQKEQFDRFRWTDVKVDNGRVRAQAVYERNGRTHHVDLNAVIHNGRAKSVRIEEK”, the protease stability score falls from 1.84 to 0.022.

Going from “DEREHAEDYARQLDKAFRTGNPDEVMKQVDKDAHFQVGERRFHGEDEFKKWAEEVFERADHIHFRVREVTRQGDKIDVDMQVDMTTNGKRETDKVRALIDTQNGRQRVDEMTFK” to “DEREKEHVEEFLRNWEEGNQDNLMRLADPNVRLQIGDHEIHGREQLAKHVDDERKQMRVSMQIKSVDAHNGRIHIQAERESQHDGNPTKESLVITFVLRNGRIQEVSYKRQQ”, the protease stability score rises from 0.651 to 0.959.

First: DERELDNASRVATNIATGDEEKVVKLADENAKLNVGDNEVHGTEQATREVKKTQNDLRRNVESFEIDKNGNHARLEATVYQTVNGKPVRYKMSAEVHVHNGRVTKVDVQMDHRLLQRNKK
Second: DERELSLFHRWLEVLNDGNEENLKQNMDPNAHANIGEKEIHGMEDFARHMITKVKELRIKIDDIKSSAHNGRLTASIDQQDNDNGKPDKYTNTFRAKFSNGQIQSQKVERDG
The protease stability score of the first is higher: -0.037 for the first, -0.31 for the second.

Compared with “DEREMKQFIELMKQKQTGNEHHVREMFDPNAQIKVGDKTVHGKDNIREQAHRERKEMREDFRIESLDHDGERVVIKYEVQQNHNGRPKTYDVEAEAEVHNGHFKFVSVDNTE”, “DERENKKHAEQLARVFQTGDHDQLRKMMPPDAKAQVGDKEYQGRDSVLHDIKRFLRQADSITIQSVTVQGNTLNIHIQLDINGKDFQAVIEVEMHNGKVVRIVIKES” is higher in protease stability score: -0.399 for the first, -0.044 for the second.

Going from “DERENQENVEEMNRVLQSGDEDRMKELVDPNATAVVGEKRVHGRETIKDEIRRFKDHADHITVERVTAKGNSAIIDIVYNVNGRETTIIVIANVHNGKIRHLHFQKS” to “DEREQIKKVLKRLEDIFKSGDEDKARELIDPNARMEYGDKELHGREKMARFIHELRKRIDHMEISLQDFKVKGDKLVFRAHLEAEVNGRKTSMTLRVVAHVEGDKIKIKEIQIK”, the protease stability score rises from 0.301 to 1.65.

Going from “DERERERQLRDIFRVIQRGDQDRWKEQADENARIHVGDTRVHGQEEARKWFKELVDRADHFSVKRIEVNGDDMILTFEVEFNGKRHTVTIDFNVQNGRIQNINVDPEAERRIRK” to “DERFRRLVHSFIQALHTNNPEEIKELFDPNARMTIGDKQVHGQEDISRLIDRERKEMRLEIKTFSVEDKGDTADVKMKAVWDVNGKPNRHSYDLNFVDHNGKIRSLHARMDSQYLREVKS”, the protease stability score falls from 0.048 to -0.074.

Going from “DERHAHTVVKKIIDALHTGDEDTLRHLADKDVRLQVGEKEVHGREEFAKEMSKFHKRVDHMEIKDVTNTGDHASVKYSAKFDGKTFNARADLVVHNGKLKKMHIDPERQKQMDS” to “DERHEAEKFAQHWMEVWKKGNHTEISKLIDENARVEVGDQKYHGRSQVKTRARQEVERADHVDYTIRSVKVTGNRIDINAQQVFRVNGTEDDQTRKIVLRRQGDKVVVQSIQAG”, the protease stability score falls from 0.535 to -0.159.
